# Laboratory results from article PMC9798004 (Frontiers in Psychiatry, 2022).
# Values joined by “and” are separate entries in the source; they are usually repeats but may differ in a detail not shown here. Equal entries are not always repeated.
# B1: Fractalkine: control agonist (protein, UniProt P78423 25-397, looked up)
# Fractalkine: QHHGVTKCNITCSKMTSKIPVALLIHYQQNQASCGKRAIILETRQHRLFCADPKEQWVKDAMQHLDRQAAALTRNGGTFEKQIGEVKPRTTPAAGGMDESVVLEPEATGESSSLEPTPSSQEAQRALGTSPELPTGVTGSSGTRLPPTPKAQDGGPVGTELFRVPPVSTAATWQSSAPHQPGPSLWAEAKTSEAPSTQDPSTQASTASSPAPEENAPSEGQRVWGQGQSPRPENSLEREEMGPVPAHTDAFQDWGPGSMAHVSVVPVSSEGTPSREPVASGSWTPKAEEPIHATMDPQRLGVLITPVPDAQAATRRQAVGLLAFLGLLFCLGVAMFTYQSLQGCPRKMAGEMAEGLRYIPRSCGSNSYVLVPV
# Legend:
# Format in all cases: cell-based
# [1] = target: T1, CHRM5 (Homo sapiens, UniProt P08912); assay: PathHunter β-arrestin assay; conditions: screen, control agonist; CHO, 37C, 2HR
# T1 construct: purchased Eurofins DiscoverX (PathHunter gpcrMAX)
# T1 sequence (P08912 whole entry): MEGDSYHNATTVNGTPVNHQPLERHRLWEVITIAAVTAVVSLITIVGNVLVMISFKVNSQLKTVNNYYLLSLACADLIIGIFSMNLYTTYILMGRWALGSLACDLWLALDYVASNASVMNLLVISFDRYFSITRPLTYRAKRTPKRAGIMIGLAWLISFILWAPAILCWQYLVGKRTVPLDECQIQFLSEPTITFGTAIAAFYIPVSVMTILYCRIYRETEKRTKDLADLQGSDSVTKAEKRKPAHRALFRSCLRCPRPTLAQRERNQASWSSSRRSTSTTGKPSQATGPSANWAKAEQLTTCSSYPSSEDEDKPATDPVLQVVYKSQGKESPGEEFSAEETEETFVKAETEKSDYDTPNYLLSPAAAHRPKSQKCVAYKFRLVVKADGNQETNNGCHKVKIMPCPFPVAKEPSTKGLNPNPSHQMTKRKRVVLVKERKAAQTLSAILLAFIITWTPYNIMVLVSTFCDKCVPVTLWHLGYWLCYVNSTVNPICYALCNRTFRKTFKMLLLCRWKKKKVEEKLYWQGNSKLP
# [2] = target: T2, CHRM2 (Homo sapiens, UniProt P08172); assay: PathHunter β-arrestin assay; conditions: control agonist
# T2 sequence (P08172 1-466): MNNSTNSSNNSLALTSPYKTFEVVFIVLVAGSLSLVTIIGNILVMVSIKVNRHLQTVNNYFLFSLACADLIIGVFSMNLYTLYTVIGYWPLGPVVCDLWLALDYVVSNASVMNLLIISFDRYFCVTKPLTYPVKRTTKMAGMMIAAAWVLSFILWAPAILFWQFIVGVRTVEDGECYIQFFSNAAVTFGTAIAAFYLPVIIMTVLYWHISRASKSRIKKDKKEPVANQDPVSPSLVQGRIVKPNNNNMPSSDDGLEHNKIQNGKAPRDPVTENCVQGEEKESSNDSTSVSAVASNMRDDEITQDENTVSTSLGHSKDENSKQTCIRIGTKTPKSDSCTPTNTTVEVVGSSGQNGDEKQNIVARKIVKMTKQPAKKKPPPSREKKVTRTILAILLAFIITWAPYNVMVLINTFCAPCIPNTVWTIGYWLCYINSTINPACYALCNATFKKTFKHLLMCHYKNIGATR
# [3] = target: T3, CHRM4 (Homo sapiens, UniProt P08173); assay: PathHunter β-arrestin assay; conditions: screen, control agonist; CHO, 37C, 2HR
# T3 construct: purchased Eurofins DiscoverX (PathHunter gpcrMAX)
# T3 sequence (P08173 whole entry): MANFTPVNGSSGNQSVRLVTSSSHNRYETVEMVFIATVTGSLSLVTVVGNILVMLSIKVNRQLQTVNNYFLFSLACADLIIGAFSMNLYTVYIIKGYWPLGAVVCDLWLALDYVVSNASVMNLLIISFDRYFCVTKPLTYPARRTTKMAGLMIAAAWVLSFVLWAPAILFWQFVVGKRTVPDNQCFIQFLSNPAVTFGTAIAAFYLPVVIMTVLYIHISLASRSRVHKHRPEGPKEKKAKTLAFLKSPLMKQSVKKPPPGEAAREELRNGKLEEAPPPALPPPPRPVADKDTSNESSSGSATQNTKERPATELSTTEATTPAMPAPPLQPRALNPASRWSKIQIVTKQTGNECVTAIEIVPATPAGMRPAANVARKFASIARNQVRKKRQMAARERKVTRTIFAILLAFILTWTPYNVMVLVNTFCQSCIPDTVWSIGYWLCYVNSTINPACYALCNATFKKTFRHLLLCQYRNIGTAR
# [4] = target: CHRM3 (Homo sapiens, UniProt P20309)
# Chain of CHRM3 (P20309 whole entry): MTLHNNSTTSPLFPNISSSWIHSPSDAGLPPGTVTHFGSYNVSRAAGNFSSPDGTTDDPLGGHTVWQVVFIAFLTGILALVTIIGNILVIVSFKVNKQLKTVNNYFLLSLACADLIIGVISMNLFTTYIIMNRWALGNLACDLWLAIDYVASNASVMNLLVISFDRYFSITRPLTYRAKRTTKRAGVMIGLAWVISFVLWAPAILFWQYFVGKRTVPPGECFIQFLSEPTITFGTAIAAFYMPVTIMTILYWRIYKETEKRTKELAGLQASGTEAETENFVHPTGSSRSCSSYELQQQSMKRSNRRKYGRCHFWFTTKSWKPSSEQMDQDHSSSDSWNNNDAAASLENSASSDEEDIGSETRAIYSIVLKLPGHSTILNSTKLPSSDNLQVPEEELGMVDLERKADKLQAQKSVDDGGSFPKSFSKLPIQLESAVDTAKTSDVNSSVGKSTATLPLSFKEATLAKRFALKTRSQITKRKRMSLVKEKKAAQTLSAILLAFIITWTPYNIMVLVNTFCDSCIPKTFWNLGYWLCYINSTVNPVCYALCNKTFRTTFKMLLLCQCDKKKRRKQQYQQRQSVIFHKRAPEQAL
# [5] = tested on: AtT20 cells wildtype (WT); assay: LDH release cytotoxicity assay; conditions: 30 μM
# Procedure: AtT20 cells expressing either human CB1 (hCB1) or CB2 (hCB2) receptors or wildtype (WT) were grown to confluence in T75 cm^2 flasks in Dulbecco's modified eagle medium containing 10% fetal bovine serum, 100 U penicillin/streptomycin, and 80 μg/mL hygromicyin (Sigma-Aldrich/Merck; Castle Hill, NSW, Australia). Cells were plated in 96-well-microplates at 30,000 cells per well and allowed to adhere overnight in 5% CO2. The following morning, cells were treated with either vehicle (0.1% DMSO; negative control), 30 μM Δ^9-THC, or 30 μM AMB-FUBINACA. At 1 or 6 h, the amount of lactate dehydrogenase in the cell media was tested, and compared with positive control (lysed cells) as per manufacturer's instructions (Dojindo Molecular Technologies, Inc.; Rockville, MD, USA), with readings performed on a Clariostar Plus plate reader (BMG Labtech, Mornington, VIC, Australia). Experiments were performed in triplicate. In order to measure any accumulating LDH, media was not changed after initial incubation. Data is represented as means ± S.E.M. A two-way ANOVA with was performed on the data at each time point, with Tukey's multiple comparison test (α = 0.05). A p < 0.05 was considered statistically significant.
# [6] = target: T4, CNR2 (Homo sapiens, UniProt P34972); assay: PathHunter β-arrestin assay; conditions: screen, control agonist; CHO, RT, 2HR
# T4 construct: purchased Eurofins DiscoverX (PathHunter gpcrMAX)
# T4 sequence (P34972 whole entry): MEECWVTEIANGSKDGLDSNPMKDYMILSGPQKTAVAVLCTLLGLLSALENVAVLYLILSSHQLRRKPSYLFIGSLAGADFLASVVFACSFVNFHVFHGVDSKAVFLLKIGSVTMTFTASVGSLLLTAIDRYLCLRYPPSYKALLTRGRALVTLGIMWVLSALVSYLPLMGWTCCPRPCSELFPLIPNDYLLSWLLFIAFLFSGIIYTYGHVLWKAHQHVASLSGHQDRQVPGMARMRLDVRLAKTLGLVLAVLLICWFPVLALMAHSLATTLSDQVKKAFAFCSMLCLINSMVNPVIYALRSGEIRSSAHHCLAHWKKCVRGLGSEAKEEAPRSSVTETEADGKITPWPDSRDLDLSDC
# [7] = target: T5, CNR1 (CB1) (Homo sapiens, UniProt P21554); assay: PathHunter β-arrestin assay; conditions: screen, control agonist; CHO, 37C, 2HR
# T5 construct: host or cells: CHO
# T5 sequence (P21554 whole entry): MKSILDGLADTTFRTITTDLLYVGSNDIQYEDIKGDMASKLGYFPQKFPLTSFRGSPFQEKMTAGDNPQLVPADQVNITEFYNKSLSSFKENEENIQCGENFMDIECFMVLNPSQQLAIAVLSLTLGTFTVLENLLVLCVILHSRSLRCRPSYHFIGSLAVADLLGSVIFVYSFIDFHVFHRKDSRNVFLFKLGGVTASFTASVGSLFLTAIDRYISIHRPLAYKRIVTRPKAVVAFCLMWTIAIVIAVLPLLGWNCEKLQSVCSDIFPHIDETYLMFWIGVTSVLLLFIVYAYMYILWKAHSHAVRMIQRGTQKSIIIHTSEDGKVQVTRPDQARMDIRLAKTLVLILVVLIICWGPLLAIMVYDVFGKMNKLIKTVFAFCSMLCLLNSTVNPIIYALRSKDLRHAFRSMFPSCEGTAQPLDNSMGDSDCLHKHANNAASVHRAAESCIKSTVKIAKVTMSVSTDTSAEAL
# [8] = target: T6, CRTH2 (Homo sapiens, UniProt Q9Y5Y4); assay: PathHunter β-arrestin assay; conditions: screen, control agonist; U2OS, RT, 2HR
# T6 construct: purchased Eurofins DiscoverX (PathHunter gpcrMAX)
# T6 sequence (Q9Y5Y4 whole entry): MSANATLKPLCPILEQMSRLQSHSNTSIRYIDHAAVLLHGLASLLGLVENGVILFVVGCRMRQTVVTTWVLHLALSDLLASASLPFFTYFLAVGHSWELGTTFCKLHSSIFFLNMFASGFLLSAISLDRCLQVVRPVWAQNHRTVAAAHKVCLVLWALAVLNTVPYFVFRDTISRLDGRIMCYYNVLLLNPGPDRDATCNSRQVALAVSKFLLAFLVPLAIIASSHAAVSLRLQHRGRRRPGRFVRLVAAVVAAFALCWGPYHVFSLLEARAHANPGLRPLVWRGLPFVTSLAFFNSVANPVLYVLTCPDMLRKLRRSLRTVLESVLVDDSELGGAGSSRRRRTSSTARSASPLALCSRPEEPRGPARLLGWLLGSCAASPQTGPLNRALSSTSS
# [9] = target: T7, CCR2 (Homo sapiens, UniProt P41597); assay: PathHunter β-arrestin assay; conditions: screen, control agonist; CHO, 37C, 2HR
# T7 construct: purchased Eurofins DiscoverX (PathHunter gpcrMAX)
# T7 sequence (P41597 whole entry): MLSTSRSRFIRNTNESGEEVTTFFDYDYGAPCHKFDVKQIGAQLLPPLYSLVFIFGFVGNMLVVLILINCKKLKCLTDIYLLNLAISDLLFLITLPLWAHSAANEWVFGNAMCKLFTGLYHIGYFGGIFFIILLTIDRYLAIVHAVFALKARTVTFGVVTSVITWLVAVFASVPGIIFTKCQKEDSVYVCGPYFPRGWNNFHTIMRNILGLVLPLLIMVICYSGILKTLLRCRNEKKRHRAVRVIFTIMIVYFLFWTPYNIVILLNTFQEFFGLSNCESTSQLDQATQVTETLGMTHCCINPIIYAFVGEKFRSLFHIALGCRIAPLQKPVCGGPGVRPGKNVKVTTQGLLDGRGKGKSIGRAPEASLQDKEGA
# [10] = target: T8, CCR1 (Homo sapiens, UniProt P32246); assay: PathHunter β-arrestin assay; conditions: screen, control agonist; CHO, 37C, 2HR
# T8 construct: purchased Eurofins DiscoverX (PathHunter gpcrMAX)
# T8 sequence (P32246 1-355): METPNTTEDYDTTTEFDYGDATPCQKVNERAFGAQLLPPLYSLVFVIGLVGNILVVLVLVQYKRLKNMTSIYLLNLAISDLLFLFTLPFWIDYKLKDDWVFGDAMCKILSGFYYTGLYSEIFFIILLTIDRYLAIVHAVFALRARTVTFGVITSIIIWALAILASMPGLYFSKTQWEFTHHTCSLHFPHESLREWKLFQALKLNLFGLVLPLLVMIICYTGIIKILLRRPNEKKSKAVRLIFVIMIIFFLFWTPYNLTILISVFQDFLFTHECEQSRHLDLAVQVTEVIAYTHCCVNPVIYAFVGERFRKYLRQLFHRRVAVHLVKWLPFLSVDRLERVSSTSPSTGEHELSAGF
# [11] = target: T9, CCR5 (Homo sapiens, UniProt P51681); assay: PathHunter β-arrestin assay; conditions: screen, control agonist; CHO, 37C, 2HR
# T9 construct: purchased Eurofins DiscoverX (PathHunter gpcrMAX)
# T9 sequence (P51681 whole entry): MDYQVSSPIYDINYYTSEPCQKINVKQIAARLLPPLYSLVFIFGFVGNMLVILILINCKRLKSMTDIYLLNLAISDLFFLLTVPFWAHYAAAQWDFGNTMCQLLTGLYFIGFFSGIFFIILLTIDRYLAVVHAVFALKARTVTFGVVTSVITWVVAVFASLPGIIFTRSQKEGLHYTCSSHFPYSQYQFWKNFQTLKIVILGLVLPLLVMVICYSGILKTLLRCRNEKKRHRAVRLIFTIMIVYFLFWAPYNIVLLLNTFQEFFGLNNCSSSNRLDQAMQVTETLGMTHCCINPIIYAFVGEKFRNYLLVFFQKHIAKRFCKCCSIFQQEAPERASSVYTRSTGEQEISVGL
# [12] = target: T10, CCR3 (Homo sapiens, UniProt P51677); assay: PathHunter β-arrestin assay; conditions: screen, control agonist; CHO, 37C, 2HR
# T10 construct: purchased Eurofins DiscoverX (PathHunter gpcrMAX)
# T10 sequence (P51677 1-355): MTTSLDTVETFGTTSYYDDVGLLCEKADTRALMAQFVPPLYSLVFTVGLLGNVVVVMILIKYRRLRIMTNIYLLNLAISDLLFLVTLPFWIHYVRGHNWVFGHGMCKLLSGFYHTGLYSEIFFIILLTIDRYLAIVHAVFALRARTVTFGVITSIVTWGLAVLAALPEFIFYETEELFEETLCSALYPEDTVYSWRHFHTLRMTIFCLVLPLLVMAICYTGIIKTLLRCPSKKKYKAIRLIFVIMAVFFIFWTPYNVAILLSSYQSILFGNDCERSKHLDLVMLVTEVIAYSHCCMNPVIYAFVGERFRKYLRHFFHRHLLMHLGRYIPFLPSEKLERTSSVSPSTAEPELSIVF
# [13] = target: T11, CCR7 (Homo sapiens, UniProt P32248); assay: PathHunter β-arrestin assay; conditions: screen, control agonist; CHO, 37C, 2HR
# T11 construct: purchased Eurofins DiscoverX (PathHunter gpcrMAX)
# T11 sequence (P32248 25-378): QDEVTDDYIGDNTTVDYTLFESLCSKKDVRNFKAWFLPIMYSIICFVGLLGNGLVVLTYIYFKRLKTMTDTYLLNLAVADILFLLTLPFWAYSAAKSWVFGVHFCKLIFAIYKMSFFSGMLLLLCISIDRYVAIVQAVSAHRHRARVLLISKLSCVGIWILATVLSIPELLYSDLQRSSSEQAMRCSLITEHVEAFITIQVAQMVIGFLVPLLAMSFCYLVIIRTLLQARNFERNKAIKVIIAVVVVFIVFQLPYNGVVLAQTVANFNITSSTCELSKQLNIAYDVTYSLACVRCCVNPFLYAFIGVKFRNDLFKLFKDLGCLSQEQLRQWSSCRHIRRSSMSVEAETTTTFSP
# [14] = target: T12, CXCR2 (Homo sapiens, UniProt P25025); assay: PathHunter β-arrestin assay; conditions: screen, control agonist; CHO, 37C, 2HR
# T12 construct: purchased Eurofins DiscoverX (PathHunter gpcrMAX)
# T12 sequence (P25025 1-360): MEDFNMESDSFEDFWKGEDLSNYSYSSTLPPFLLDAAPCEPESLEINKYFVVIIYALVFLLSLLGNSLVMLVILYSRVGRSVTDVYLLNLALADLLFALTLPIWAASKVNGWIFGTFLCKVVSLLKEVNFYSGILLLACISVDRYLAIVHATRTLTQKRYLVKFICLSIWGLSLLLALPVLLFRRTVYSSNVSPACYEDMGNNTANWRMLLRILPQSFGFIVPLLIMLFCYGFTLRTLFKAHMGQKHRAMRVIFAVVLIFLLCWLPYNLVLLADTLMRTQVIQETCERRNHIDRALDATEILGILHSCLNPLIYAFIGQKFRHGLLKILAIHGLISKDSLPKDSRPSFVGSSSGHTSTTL
# [15] = target: T13, CXCR1 (Homo sapiens, UniProt P25024); assay: PathHunter β-arrestin assay; conditions: screen, control agonist; U20S, 37C, 2HR
# T13 construct: purchased Eurofins DiscoverX (PathHunter gpcrMAX)
# T13 sequence (P25024 1-350): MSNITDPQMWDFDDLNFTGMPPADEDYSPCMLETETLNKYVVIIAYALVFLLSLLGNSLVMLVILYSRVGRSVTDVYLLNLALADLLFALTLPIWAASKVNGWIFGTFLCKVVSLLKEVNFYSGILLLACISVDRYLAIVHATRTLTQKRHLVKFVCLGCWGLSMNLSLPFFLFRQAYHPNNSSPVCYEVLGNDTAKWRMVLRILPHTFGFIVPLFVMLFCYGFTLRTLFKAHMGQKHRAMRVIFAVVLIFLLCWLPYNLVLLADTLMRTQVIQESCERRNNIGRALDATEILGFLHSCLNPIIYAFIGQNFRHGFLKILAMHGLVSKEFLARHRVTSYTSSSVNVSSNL
# [16] = target: CALCR-RAMP2 (Homo sapiens, UniProt O60895+P30988); assay: PathHunter β-arrestin assay; conditions: control agonist
# Chain of CALCR-RAMP2 (O60895 43-175 partner, one chain of several): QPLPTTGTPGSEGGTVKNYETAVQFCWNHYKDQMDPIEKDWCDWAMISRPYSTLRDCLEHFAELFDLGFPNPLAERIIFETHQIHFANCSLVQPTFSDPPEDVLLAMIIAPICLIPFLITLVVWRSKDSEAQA
# [17] = target: T14, CALCR-RAMP3 (Homo sapiens, UniProt O60896+P30988); assay: PathHunter β-arrestin assay; conditions: screen, control agonist; CHO, RT, 2HR
# T14 construct: purchased Eurofins DiscoverX (PathHunter gpcrMAX)
# T14 sequence (P30988 25-474): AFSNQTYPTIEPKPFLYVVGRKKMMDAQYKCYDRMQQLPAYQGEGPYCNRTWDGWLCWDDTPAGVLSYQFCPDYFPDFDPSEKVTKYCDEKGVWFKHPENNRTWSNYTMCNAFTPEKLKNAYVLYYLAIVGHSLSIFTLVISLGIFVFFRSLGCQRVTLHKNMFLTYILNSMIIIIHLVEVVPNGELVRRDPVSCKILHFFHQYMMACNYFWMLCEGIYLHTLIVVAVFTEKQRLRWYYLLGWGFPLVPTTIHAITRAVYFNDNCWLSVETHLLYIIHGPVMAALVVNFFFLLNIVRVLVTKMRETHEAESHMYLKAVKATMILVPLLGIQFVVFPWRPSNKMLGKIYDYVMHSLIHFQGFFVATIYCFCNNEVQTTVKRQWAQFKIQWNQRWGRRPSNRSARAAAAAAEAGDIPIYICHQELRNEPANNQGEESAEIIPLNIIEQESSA
# T14 sequence (O60896 24-148 partner): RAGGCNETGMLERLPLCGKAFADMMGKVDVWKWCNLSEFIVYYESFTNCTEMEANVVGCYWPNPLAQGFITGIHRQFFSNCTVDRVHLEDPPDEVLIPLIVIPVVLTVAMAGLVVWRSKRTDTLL
# [18] = target: T15, CALCR (Homo sapiens, UniProt P30988); assay: PathHunter β-arrestin assay; conditions: screen, control agonist; U2OS, 37C, 2HR
# T15 construct: purchased Eurofins DiscoverX (PathHunter gpcrMAX)
# T15 sequence (P30988 25-474): T14 sequence (P30988 25-474)
# [19] = target: T16, CRHR2 (Homo sapiens, UniProt Q13324); assay: PathHunter β-arrestin assay; conditions: screen, control agonist; CHO, RT, 2HR
# T16 construct: purchased Eurofins DiscoverX (PathHunter gpcrMAX)
# T16 sequence (Q13324 whole entry): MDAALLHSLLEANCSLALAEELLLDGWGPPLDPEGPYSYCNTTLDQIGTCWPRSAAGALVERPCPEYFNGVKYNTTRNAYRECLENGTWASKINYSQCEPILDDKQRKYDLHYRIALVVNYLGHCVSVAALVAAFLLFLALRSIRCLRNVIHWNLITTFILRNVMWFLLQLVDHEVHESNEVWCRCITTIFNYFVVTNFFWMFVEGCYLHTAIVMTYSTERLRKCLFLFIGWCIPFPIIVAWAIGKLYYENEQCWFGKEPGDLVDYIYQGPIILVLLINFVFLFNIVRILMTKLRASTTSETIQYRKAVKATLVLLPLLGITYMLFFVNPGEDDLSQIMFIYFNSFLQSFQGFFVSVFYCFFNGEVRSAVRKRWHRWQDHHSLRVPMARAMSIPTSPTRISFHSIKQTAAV
# [20] = target: T17, CX3CR1 (Homo sapiens, UniProt P49238); assay: PathHunter β-arrestin assay; conditions: screen, control agonist; CHO, 37C, 2HR
# T17 construct: purchased Eurofins DiscoverX (PathHunter gpcrMAX)
# T17 sequence (P49238 1-355): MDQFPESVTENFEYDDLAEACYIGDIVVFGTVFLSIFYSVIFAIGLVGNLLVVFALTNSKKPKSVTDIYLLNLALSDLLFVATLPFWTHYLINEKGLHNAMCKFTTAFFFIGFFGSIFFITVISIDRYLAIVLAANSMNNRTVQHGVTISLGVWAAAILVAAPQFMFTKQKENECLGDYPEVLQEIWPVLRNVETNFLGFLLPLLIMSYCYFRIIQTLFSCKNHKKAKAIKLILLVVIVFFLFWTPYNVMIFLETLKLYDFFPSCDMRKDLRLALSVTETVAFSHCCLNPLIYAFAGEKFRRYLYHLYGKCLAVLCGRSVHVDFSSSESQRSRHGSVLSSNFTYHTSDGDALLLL
# [21] = follow-up concentration-response assays
molecule,measurement,setting,value
CC(=O)OCC[N+](C)(C)C [Acetylcholine],EC80,[1],1.03 µM
same,EC80,[2]; [21],24.817 µM
same,EC80,"[2]; screen, CHO, 37C, 2HR",24.8 µM
same,EC80,[3],3.91 µM
same,EC80,[4],3.54 µM and 3.5393 µM
CCCCCCC(C)(C)c1ccc([C@@H]2C[C@H](O)CC[C@H]2CCCO)c(O)c1 [CP55940],"LDH in cell media, normalized to total LDH",[5]; 1 h,28.90 ± 7.81%
same,LDH increase compared with vehicle,[5]; 6 h,no effect was observed
same,EC80,[6],4.12 nM
same,EC80,[7],0.0203 µM
CCCCC[C@H](O)/C=C/[C@H]1C(=O)C[C@H](O)[C@@H]1C/C=C\CCCC(=O)O [PGD2],EC80,[8],0.0238 µM
CCL2: control agonist,EC80,[9],6.98 nM
CCL3: control agonist,EC80,[10],2.53 nM
same,EC80,[11],0.0101 µM
CCL13: control agonist,EC80,[12],0.0464 µM
CCL19: control agonist,EC80,[13],0.0189 µM
CXCL8: control agonist,EC80,[14],953 pM
same,EC80,[15],4.95 nM
Calcitonin,EC80,[16]; [21],0.035 µM
same,EC80,"[16]; screen, CHO, 37C, 2HR",0.0305 µM
same,EC80,[17],1.15 µM
same,EC80,[18],0.0377 µM
Sauvagine,EC80,[19],0.0247 µM
B1,EC80,[20],1.92 nM
